Here are results for 30 sequences from the nanobody polyreactivity screen of Harvey et al. (2022).

The nature of the data set: yeast display, Sf9 membrane polyspecificity reagent, FACS + sequencing; frameworks hold sequencing errors. In outline: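 Synthetic nanobody libraries on Saccharomyces cerevisiae BJ5465 were galactose-induced for 36–48 hours, stained 1 hour at 4 °C with 10% biotinylated, detergent-solubilized Sf9 membrane reagent and enriched on streptavidin microbeads. FACS then separated cells into low and high (top ~1%) gates by anti-HA (expression) and streptavidin (reagent binding) fluorescence. Genes were colony-PCR amplified, MiSeq 2 × 250 sequenced and CDR-length filtered. A clone's polyreactivity label is that of its gate of origin.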
As for “QVQLVESGGGLVQAGGSLRLSCAASGSIFAAYAMGWYRQAPGKERELVAAISLDDGSTYADSVKGRFTISRDNAKNTVYLQMNSLKPEDTAVYYCNARYKSRLYPRYDYWGQGTQVTVSS”, the “polyreactivity (PSR sort gate)” value is “high polyreactivity”.

With “QVQLVESGGGLVQAGGSLRLSCAASGSIFADNAMGWDRQAPGKERELVAVISFSGSSTYYADSVKGRFTISRDNAKNTVYFQMNSVKPEDTAVYYWNAVRYRLERFDYWGQGTQVTVSS”, the “polyreactivity (PSR sort gate)” value is “high polyreactivity”.

Consider “QVQLVESGGGLVQAGGSLRLSCAASGSIFADYAMGWYRQAPGKERELVAAITGSGGRTYYADSVKGRFTISRDNAKNTVYLQMNSLKPEDTAVYYCAAYQVVWDPYTRYDYWGQGTQVTVSS”, for which the “polyreactivity (PSR sort gate)” value is listed as “low polyreactivity”.

With “QVQLVESGGGLVQAGGSLRLSCAASGSIFADYAMGWYRQAPGKERELVAAITYTDDRTYYADSVKGRFTISRDNAKNTVYLQMNSLKPEDTAVYYCNRVFTCRYGYRYEYWGQGSQVTVSS”, the “polyreactivity (PSR sort gate)” value is “high polyreactivity”.

As for “QVQLVESGGGLVQAGGSLRLSCAASGSIFADYTMGWYRQAPGKERELVAPINYRDGGTSYADSVKGRFTISRDKANNTVYLQMNSLKPEDTAVYYCTKQVDLSGQWDYWYGYYTYDYWGPGTQVTVSS”, the “polyreactivity (PSR sort gate)” value is given as “low polyreactivity”.

As for “QVQLVESGGGLVQAGGSLRLSCAASGSIFAGNTMGWSRQAPGKEREFVASIRSSSGSTYYADSVKGRFTISRDNAKNTVYLQMNSLKPEDTAVYYCARVAPASGVRWYYYWGQGTQVTVSS”, the “polyreactivity (PSR sort gate)” value is recorded as “high polyreactivity”.

In the case of “QVQLVESGGGLVQAGGSLRLSCAASGSIFAGNVMGWYRQAPGKERELVAAISRRGGRTYYADSVKGRFTISRDNAKNTVYLQMNSLKPEDTAVYYCAARRDPVLGNSDFWGQGTQVTVSS”, the “polyreactivity (PSR sort gate)” value is “high polyreactivity”.

Consider “QVQLVESGGGLVQAGGSLRLSCAASGSIFAGYAMGLYRQAPGKERELVAAISRSGDSTYYADSVKGRFTISRDNAKNTVYLQMNSLKPEDTAVYYCAAVLSYSYVRYNYWGQGTQVTVSS”, for which the “polyreactivity (PSR sort gate)” value is on record as “high polyreactivity”.

For the sequence “QVQLVESGGGLVQAGGSLRLSCAASGSIFAGYAMGWYRQAPGKERELVAAISWSGGGTYYADSVKGRFTISRDNAKNTVYLQMNSLKPEDTAVYYCNAYGYRHRGNGYWGQGTQVTVSS”, the “polyreactivity (PSR sort gate)” value was “high polyreactivity”.

With “QVQLVESGGGLVQAGGSLRLSCAASGSIFAGYVMGWYRPAPGKERELVAATYYADSVKGRFTISRDNAKNTVYLQMNSLKPEDTAVYYCNAESLYTHYNDTSLTVEYGYWGQGTQVTVSS”, the “polyreactivity (PSR sort gate)” value is on record as “low polyreactivity”.

For the sequence “QVQLVESGGGLVQAGGSLRLSCAASGSIFAHYAMGWYRQAPGKERELVAAISKNAGSTYYADSVKGRFTISRDNAKNTVYLQMNSLKPEDTAVYYCATGYQKPYSSDYWGQGTQVTVSS”, the “polyreactivity (PSR sort gate)” value was “high polyreactivity”.

Consider “QVQLVESGGGLVQAGGSLRLSCAASGSIFAHYTMGWYRQAPGKERELVAAISGSGGSTYYADSVKGRFTISCDNAKNTVYLQMNSLKPEDTAVYYCNKRYRPVGPYDYWGQGTQVTVSS”, for which the “polyreactivity (PSR sort gate)” value was “high polyreactivity”.

In the case of “QVQLVESGGGLVQAGGSLRLSCAASGSIFAINAMGWYRQAPGKERELVARISWSGGRTYYADSVKGRFTISRDNAKNTVYLQMNSLKPEDTAVYYCAKRYYKSLNRDEFDSWGQGTQVTVSS”, the “polyreactivity (PSR sort gate)” value was “high polyreactivity”.

For the sequence “QVQLVESGGGLVQAGGSLRLSCAASGSIFAKNAMGWYRQAPGKERELVAAISSSGGRTYYADSVKGRFTISRDNAKNTVYLQMNSLKPEDTAVYYCAADLRYIYWSYYYWGQGTQVTVSS”, the “polyreactivity (PSR sort gate)” value is on record as “low polyreactivity”.

Regarding “QVQLVESGGGLVQAGGSLRLSCAASGSIFAKYAMGWYRQAPGKERELVAAISSGGSTYYADSVKGRFTISRDNAKNTVYIQMNSLKPEDTAVYYCAADYGSDYTKGDYWGQGTQVTVSS”, the “polyreactivity (PSR sort gate)” value is on record as “low polyreactivity”.

Turning to “QVQLVESGGGLVQAGGSLRLSCAASGSIFALYAMGWYRQAPGKERELVAAISYRGGRTYYADSVKGRFTISRDNAKNTVYLQMNSLKPEDTAVYFCATDFPGKFDYWGQGTQVTVSS”, the “polyreactivity (PSR sort gate)” value is “low polyreactivity”.

As for “QVQLVESGGGLVQAGGSLRLSCAASGSIFALYAMGWYRQAPGQERELVAAISYRGGRTYYADSVKGRFTISRDNAKNTVYLQMNSLKPEDTAVYYCNARAFPFGTGVQGFGFGYWGQGTQVTVSS”, the “polyreactivity (PSR sort gate)” value is reported as “low polyreactivity”.

Consider “QVQLVESGGGLVQAGGSLRLSCAASGSIFAPDVMGWYRQAPGKERELVAAITESGGRTYYAASVKGRFTISRDNAKNTVYLQMNSLKPVDTAVYSCAARTFDRNRQLRRQWYDYWGLGTQVTVSS”, for which the “polyreactivity (PSR sort gate)” value is listed as “high polyreactivity”.

“QVQLVESGGGLVQAGGSLRLSCAASGSIFAPNAMGWYRQAPGKEREFVAGITQSGTSTYADSVKGRFTISRDNAKNTVYLQMNSLKPEDTAVYYCAAEYYYGYWYGYIISYDYWGQGTQVTVSS”: the “polyreactivity (PSR sort gate)” value is recorded as “high polyreactivity”.

“QVQLVESGGGLVQAGGSLRLSCAASGSIFAPYAMGWTRQAPGKERELVASISVRSGSTHYADSVKGRFTISRDNAKNTVYLQMNCLNPEDTAVYYCNARTYDYSWVWESRWWYYYWGQGTQVTVSS”: the “polyreactivity (PSR sort gate)” value is on record as “high polyreactivity”.

As to “QVQLVESGGGLVQAGGSLRLSCAASGSIFAPYSMGWYRQAPGKERELVAAITWSGDSTYYADSVKGRFTISRDNAKNTVYLQMNSMKPEDTSVYYCATEEVYGQGNYWGQGTQLTVSS”, the “polyreactivity (PSR sort gate)” value was “low polyreactivity”.

In the case of “QVQLVESGGGLVQAGGSLRLSCAASGSIFAQYAMGWYRQAPGKERELVATISSVGSTNYADSVKGRFTISRDNAKNTVYLQMNSLKPEDTAVYYCNAVRSGWGYFYGLNYWGQGTQVTVSS”, the “polyreactivity (PSR sort gate)” value is recorded as “low polyreactivity”.

Regarding “QVQLVESGGGLVQAGGSLRLSCAASGSIFARYAMGWYRQAPGKEREFVAAITGRGGTTNYADSVKGRFTISRDNAKNTVYLQMNSLKPEDTAVYYCNARDRYREHDYWGQGTQVTVSS”, the “polyreactivity (PSR sort gate)” value is listed as “high polyreactivity”.

As for “QVQLVESGGGLVQAGGSLRLSCAASGSIFARYAMGWYRQAPGKERELVATITRGGSTNYADSVKGRFTISRDNAKNTVYLQMNSLKPDDTAVYYCARTSYGRLDYWGQGPQVTVSS”, the “polyreactivity (PSR sort gate)” value is reported as “low polyreactivity”.

Consider “QVQLVESGGGLVQAGGSLRLSCAASGSIFASNAMGCYRQAPGKERELVAAINSGDSTNYADSVKGRFTISRDNAKNTVYLQMNSLKPEDTAVYYCARGLEERYDYWGQGTQVTVSS”, for which the “polyreactivity (PSR sort gate)” value is “low polyreactivity”.

Take “QVQLVESGGGLVQAGGSLRLSCAASGSIFASNAMGWYRQAPGKERELVAAISTSGGSTYYADSVKGRFTISRDNAKNTVYLQMNSLKPEDTAVYYCAKLLARGFRIWQDYDYWGQGTQVTVSS”: the “polyreactivity (PSR sort gate)” value is on record as “low polyreactivity”.

For “QVQLVESGGGLVQAGGSLRLSCAASGSIFASNTMGWYRQAPGKERELVAAISFRGGRTYYADSVKGRFTISRDNAKNTVYLQMNSLKPEDTAVYYCNAAYGRYPRGGYWGQGTQVTVSS”, the “polyreactivity (PSR sort gate)” value was “high polyreactivity”.

“QVQLVESGGGLVQAGGSLRLSCAASGSIFASNTMGWYRQAPGKERELVAGITKIGSSTYYADSVKGRFTISRDHAKNTVYLQMNSLKPEDTSVYYSNAYGPNIYSSRYDYWGQGTQVTLSS”: the “polyreactivity (PSR sort gate)” value is reported as “low polyreactivity”.

Take “QVQLVESGGGLVQAGGSLRLSCAASGSIFASYDMGWYRQAPGKERELVARITFNGGSTYYADSVKGRFTISRDNAKNTVYLQMNSLKPEDTAVYYCANDYRYIFIYPYGWTRYDYWGQGTQVTVSS”: the “polyreactivity (PSR sort gate)” value is “low polyreactivity”.

With “QVQLVESGGGLVQAGGSLRLSCAASGSIFATYAMGWYRQAPGKERELGAAISRSGGSTYYADSVKGRFTISRDNAKNTVYLQMNSLKPEDTAVYYCAAVRGYGWWWSRWGSREYWGQGTQVTVSS”, the “polyreactivity (PSR sort gate)” value is listed as “high polyreactivity”.
